Test results reported in the supplement of paper PMC10126150.
± gives the standard deviation of the averaged measurements.

Tested on: ATP
Test: switch fluorescence ratio, 500 uM ATP over buffer (Cy3 cluster intensity, sum of 5 cycles each) (fold (ratio)); higher = stronger signal-on switching upon ATP binding; sequences stand for … in TCGTCGGCAGCGTCAGATGTGTATAAGAGACAGTTTTTTTTTTTTTTTTTTTTTTTTT…TC
Details: aptamer strand: ATP DNA aptamer (quencher-CACCTGGGGGAGTATTGCGGAGGAAGG + anchor), 100 nM annealed; ATP concentration: 500 uM
How it was run: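 Switching-strand clusters labelled with Cy3 on a modified Illumina MiSeq flow-cell were annealed to 100 nM quencher-labelled ATP aptamer, imaged in selection buffer, and re-imaged after 15 min with 500 uM ATP at 22 °C. This was done over five cycles with NaOH stripping and re-annealing in between. The fluorescence ratio is summed target-cycle over summed buffer-cycle Cy3 intensity per cluster, averaged per switch-domain sequence, excluding clusters outside 100-1000 RFU.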
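Also: ATP exposure 15 min at 22 °C before imaging.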

Sequence	switch fluorescence ratio
ATGAAGGGGA	1 ± 0.049
ATGAATATTA	0.99254 ± 0.00014
ATGAATCGTC	0.9927 ± 0.0037
ATGAATCTAA	1.01 ± 0.046
ATGAATTCGG	1.01 ± 0.011
ATGACACGGA	1.04 ± 0.01
ATGACCCCTC	1.044 ± 0.007
ATGACGCGTC	0.982 ± 0.045
ATGAGAATGC	1.024 ± 0.0063
ATGAGAGAAT	1.0144 ± 0.0004
ATGAGAGCGG	0.996 ± 0.096
ATGAGAGGGC	1.054 ± 0.0092
ATGAGCGCAC	1.06 ± 0.024
ATGAGCGGGG	0.98 ± 0.058
ATGAGCGTCA	0.9904 ± 0.0017
ATGAGGCAGT	1.12 ± 0.039
ATGAGGGCCA	1.01 ± 0.059
ATGAGGGGCG	1.02 ± 0.041
ATGAGGTAGG	1.03 ± 0.05
ATGAGGTCTC	0.98 ± 0.046
ATGAGGTGAT	1.057 ± 0.0041
ATGAGGTGGG	0.992 ± 0.036
ATGAGGTTGC	0.978 ± 0.011
ATGAGTCCGT	1.16 ± 0.017
ATGAGTTCTC	1 ± 0.042

Sequence	switch fluorescence ratio
ATGATACAGT	1.021 ± 0.0067
ATGATAGAGA	1.06 ± 0.021
ATGATAGATA	1.004 ± 0.0047
ATGATAGCTT	1 ± 0.026
ATGATATTTG	1.009 ± 0.006
ATGATCAAAT	1 ± 0.054
ATGATCAGTG	0.98 ± 0.056
ATGATCCGTT	1.001 ± 0.0059
ATGATCTTCC	2.3 ± 0.091
ATGATGACGA	1.06 ± 0.11
ATGATGGTGG	1.02 ± 0.057
ATGATGGTTC	1.01 ± 0.012
ATGATGTAGG	1.033 ± 0.0075
ATGATGTATG	0.989 ± 0.027
ATGATGTGGA	1.01 ± 0.077
ATGATGTTGA	1 ± 0.04
ATGATTTGAG	0.9905 ± 0.0022
ATGCAAACGA	1.23 ± 0.065
ATGCAATGGA	1 ± 0.064
ATGCACCAGG	2.55 ± 0.19
ATGCACGTAT	1.03 ± 0.048
ATGCACTCGA	1.03 ± 0.012
ATGCAGCGGG	1.01 ± 0.028
ATGCAGGATT	0.981 ± 0.02
ATGCAGTCTA	1.017 ± 0.005

Sequence	switch fluorescence ratio
ATGCATCGGG	0.9974 ± 0.0049
ATGCATGATT	0.9822 ± 0.0051
ATGCATGGAG	1.03 ± 0.016
ATGCATGGTT	1.02 ± 0.054
ATGCCCAGGG	1.61 ± 0.04
ATGCGAGTAT	1.023 ± 0.0018
ATGCGCACGG	1.064 ± 0.009
ATGCGCCCTG	1 ± 0.015
ATGCGGGATT	1.01 ± 0.023
ATGCGGTAGA	1.02 ± 0.042
ATGCGTGTTT	1.003 ± 0.0014
ATGCTAAAAG	1.008 ± 0.0096
ATGCTATGTA	1.01 ± 0.033
ATGCTCAGTT	0.9836 ± 0.0062
ATGCTCTGCC	0.992 ± 0.029
ATGCTGCCTG	1.01 ± 0.019
ATGCTGGGTC	0.973 ± 0.028
ATGCTTATCA	0.9807 ± 0.0051
ATGGAAAAAG	0.963 ± 0.046
ATGGAAAAGA	0.978 ± 0.016
ATGGAAAGCA	1.05 ± 0.029
ATGGAAATGG	0.996 ± 0.024
ATGGAAGGTT	0.991 ± 0.033
ATGGACCTGC	1.06 ± 0.064
ATGGACGCTA	1.12 ± 0.048

Sequence	switch fluorescence ratio
ATGGACGGGT	0.996 ± 0.03
ATGGAGGCGT	0.994 ± 0.015
ATGGATAAGA	1 ± 0.014
ATGGATGTGG	0.979 ± 0.055
ATGGATGTTA	0.978 ± 0.032
ATGGATTTGC	1.02 ± 0.081
ATGGCACCGG	1.018 ± 0.0069
ATGGCAGGCA	0.9929 ± 0.0054
ATGGCCGAGT	1.03 ± 0.038
ATGGCTAATA	0.9806 ± 0.0057
ATGGCTACCG	1.01 ± 0.033
ATGGGAGAAT	0.9801 ± 0.009
ATGGGAGGCG	0.982 ± 0.043
ATGGGATGGC	0.97 ± 0.031
ATGGGATTAA	1.032 ± 0.0025
ATGGGCAGTC	1.21 ± 0.41
ATGGGCCCAT	1.01 ± 0.011
ATGGGCGATG	1.01 ± 0.055
ATGGGCGGGT	1 ± 0.035
ATGGGCTGAA	1.021 ± 0.0092
ATGGGGAAAT	0.984 ± 0.021
ATGGGGACGG	1.013 ± 0.0035
ATGGGGATCA	1.017 ± 0.0022
ATGGGGATTA	0.9956 ± 0.0092
ATGGGGATTT	0.991 ± 0.01

Sequence	switch fluorescence ratio
ATGGGGGAAA	0.991 ± 0.011
ATGGGGGAAC	0.975 ± 0.011
ATGGGGGCCA	0.974 ± 0.019
ATGGGGGGAT	1.23 ± 0.58
ATGGGGGGGC	1.01 ± 0.022
ATGGGGGGGT	0.999 ± 0.025
ATGGGGGGTA	0.986 ± 0.044
ATGGGGGGTC	0.985 ± 0.041
ATGGGGGTAA	1.01 ± 0.024
ATGGGGGTCA	0.998 ± 0.015
ATGGGGGTTA	0.987 ± 0.04
ATGGGGTGTC	0.943 ± 0.067
ATGGGTAGTT	0.977 ± 0.022
ATGGGTATTG	1.009 ± 0.0039
ATGGGTCCAG	1.01 ± 0.019
ATGGGTCTCG	0.966 ± 0.019
ATGGTAGCAA	2.05 ± 0.14
ATGGTATTTG	0.998 ± 0.037
ATGGTCGCGG	0.985 ± 0.035
ATGGTCTTTT	1.014 ± 0.0032
ATGGTGAGGA	0.995 ± 0.018
ATGGTGCGGA	0.956 ± 0.06
ATGGTGCGGT	0.987 ± 0.02
ATGGTGGGGA	1.03 ± 0.03
ATGGTGGTTT	0.998 ± 0.063

Sequence	switch fluorescence ratio
ATGGTGTTAT	0.989 ± 0.014
ATGGTTGAGG	0.987 ± 0.031
ATGGTTTCGA	0.982 ± 0.04
ATGGTTTCGC	0.9932 ± 0.0067
ATGGTTTCTT	1 ± 0.034
ATGTAAAATT	0.972 ± 0.038
ATGTAACTAT	1.03 ± 0.021
ATGTAAGATT	0.9891 ± 0.0047
ATGTAATCAC	1.04 ± 0.049
ATGTAATTCG	1.002 ± 0.0086
ATGTAGCGAC	1.44 ± 0.39
ATGTAGGAAC	0.999 ± 0.012
ATGTAGGTTA	0.987 ± 0.018
ATGTAGTTCC	1.064 ± 0.0022
ATGTATGATA	0.967 ± 0.013
ATGTATGTTA	0.978 ± 0.055
ATGTATTTAT	1.04 ± 0.061
ATGTCAGGAA	1.02 ± 0.041
ATGTCCCGGT	0.974 ± 0.025
ATGTCCCGTT	0.98 ± 0.014
ATGTCCGGGG	0.985 ± 0.042
ATGTCCGGGT	1.03 ± 0.032
ATGTCCGGTT	1 ± 0.019
ATGTCGATGC	1.01 ± 0.032
ATGTCGGTCG	1.02 ± 0.012

Sequence	switch fluorescence ratio
ATGTCTTGGC	0.998 ± 0.03
ATGTCTTGTG	0.985 ± 0.026
ATGTGAAGAG	0.9952 ± 0.003
ATGTGACTGG	0.986 ± 0.044
ATGTGAGGGT	1.017 ± 0.0039
ATGTGAGTAT	0.9753 ± 0.0028
ATGTGCAGCG	1.025 ± 0.0049
ATGTGCCTGC	1.07 ± 0.03
ATGTGCGTAG	1.01 ± 0.017
ATGTGGGCAA	1.08 ± 0.013
ATGTGGGCTA	0.992 ± 0.03
ATGTGGGGAC	1.01 ± 0.084
ATGTGGGGGG	0.992 ± 0.039
ATGTGGTCT	1.02 ± 0.03
ATGTGTAAAG	0.98 ± 0.017
ATGTGTCTAT	0.998 ± 0.036
ATGTTAAACG	1.007 ± 0.0024
ATGTTAGAAA	1.02 ± 0.032
ATGTTAGGG	0.98 ± 0.011
ATGTTAGGTT	1 ± 0.029
ATGTTATGAA	1.06 ± 0.11
ATGTTCACGG	1.01 ± 0.033
ATGTTGAGCT	1.019 ± 0.0023
ATGTTGGGAC	1.02 ± 0.032
ATGTTGTCGG	0.987 ± 0.022

Sequence	switch fluorescence ratio
ATGTTGTTGG	0.9676 ± 0.007
ATGTTTAATC	0.986 ± 0.023
ATGTTTATAG	0.98 ± 0.024
ATGTTTCTGA	0.9851 ± 0.0032
ATGTTTTATA	1.02 ± 0.023
ATGTTTTCTC	0.993 ± 0.013
ATGTTTTCTT	0.998 ± 0.016
ATGTTTTTAC	0.949 ± 0.029
ATGTTTTTTG	0.982 ± 0.023
ATTAAAAGA	1.01 ± 0.023
ATTAAAAGGA	0.991 ± 0.073
ATTAAAAGTG	0.986 ± 0.013
ATTAAAATAC	1.09 ± 0.11
ATTAAAGTGC	0.999 ± 0.027
ATTAAATATC	1.03 ± 0.024
ATTAAATGGG	0.976 ± 0.036
ATTAAATTCG	1 ± 0.017
ATTAAATTTT	1.01 ± 0.032
ATTAACTGCT	0.9932 ± 0.0058
ATTAAGCGGC	1.05 ± 0.13
ATTAAGGA	1 ± 0.051
ATTAAGGTCG	1.07 ± 0.023
ATTAAGGTGC	1.31 ± 0.075
ATTAAGTGTT	0.984 ± 0.042
ATTAATAGG	0.997 ± 0.026
